In patent publication US12247244B2, “Membrane protein activity measurement method” (THE UNIVERSITY OF TOKYO, priority 2018, dated 2025):

Biological target: T1, human Flt3 (hFlt3) (Homo sapiens, UniProt P36888)
T1 construct: expressed in transfected cells; host or cells: NCP19 cells (HeLa-derived knock-in clone)
T1 sequence (P36888 27-993): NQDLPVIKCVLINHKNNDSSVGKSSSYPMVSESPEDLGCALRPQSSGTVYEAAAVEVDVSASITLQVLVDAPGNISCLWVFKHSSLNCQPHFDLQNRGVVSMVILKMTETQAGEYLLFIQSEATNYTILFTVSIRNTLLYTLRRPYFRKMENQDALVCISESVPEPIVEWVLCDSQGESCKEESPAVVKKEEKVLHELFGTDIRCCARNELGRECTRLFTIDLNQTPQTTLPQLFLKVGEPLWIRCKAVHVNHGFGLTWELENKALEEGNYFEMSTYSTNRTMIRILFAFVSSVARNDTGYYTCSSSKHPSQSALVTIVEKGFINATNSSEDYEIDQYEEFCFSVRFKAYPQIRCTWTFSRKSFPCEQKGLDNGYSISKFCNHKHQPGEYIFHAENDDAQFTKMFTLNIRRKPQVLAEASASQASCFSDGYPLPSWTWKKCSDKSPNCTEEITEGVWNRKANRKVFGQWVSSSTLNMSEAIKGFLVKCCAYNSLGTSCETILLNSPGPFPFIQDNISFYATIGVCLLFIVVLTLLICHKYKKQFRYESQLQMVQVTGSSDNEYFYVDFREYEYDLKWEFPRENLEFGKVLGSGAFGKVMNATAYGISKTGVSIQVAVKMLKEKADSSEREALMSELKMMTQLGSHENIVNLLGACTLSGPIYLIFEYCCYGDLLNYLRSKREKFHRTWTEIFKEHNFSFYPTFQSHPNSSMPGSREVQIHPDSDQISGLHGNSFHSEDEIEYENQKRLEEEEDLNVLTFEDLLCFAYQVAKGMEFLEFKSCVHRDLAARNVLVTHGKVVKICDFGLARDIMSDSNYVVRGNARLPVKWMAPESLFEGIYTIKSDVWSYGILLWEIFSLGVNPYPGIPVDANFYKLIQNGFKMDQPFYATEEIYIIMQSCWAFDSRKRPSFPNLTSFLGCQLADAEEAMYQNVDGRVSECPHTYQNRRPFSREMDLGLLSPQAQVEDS
Test: NCP19 knock-in reporter cell assay (UAS-luciferase) for hFlt3 activation
Type: cell-based
Conditions: NCP19 cells transfected with hFlt3; ligand 30, 3, 0.3, 0.03, 0 ng/ml; stimulation for 6 hours; FIG. 12
Experimental: • Used cells: NCP19 • Used plasmids: • (1) a plasmid that expresses hFlt3 (an hFlt3 expression plasmid); and • (2) UAS-luciferase. • Day 1: NCP19 cells were seeded on a 96-well plate at a density of 24000 cells/well. • Day 2: Within 24 hours after the seeding on the 96-well plate, 90 ng of DNA per well (a plasmid cocktail consisting of 60 ng of hFlt3+30 ng of UAS-luciferase) was transfected into the cells according to a lipofection method. • Day 3: Twenty-four hours after the transfection, the cells were stimulated by a ligand (Flt3-ligand: at concentrations of 30, 3, 0.3, 0.03, and 0 ng/ml). After the stimulation for 6 hours, a culture supernatant was discarded, and a substrate for luciferase was added, and then, luminescence signals were measured using a plate reader.

B1: Flt3-ligand: ligand used to stimulate the receptor tyrosine kinase hFlt3 (protein)
chain: TQDCSFQHSPISSDFAVKIRELSDYLLQDYPVTVASNLQDEELCGGLWRLVLAQRWMERLKTVAGSKMQGLLERVNTEIHFVTKCAFQPPPSCLRFVQTNISRLLQETSEQLVALKPWITRQNFSRCLELQCQPDSSTLPPPWSPRPLEATAPTA
B1 was tested. Which “activation of hFlt3, luminescence of luciferase” value did it give?
The value was “detected as the luminescence of luciferase”.
